From US20100080799

B1: co-expressed N-motif and C-motif of the WSTF kinase domain (protein)
chain 1: MAPLLGRKPFPLVKPLPGEEPLFTIPHTQEAFRTREEYEARLERYSERIWTCKSTGSSQLTHKEAWEEEQEVAELLKEEFPAWYEKLVLEMVHHNTASLEKLVDTAWLEIMTKYAVGEECDFEVGKEKMLKVKIVKIHPLEKVDEEATEKKSDGACDSPSSDKENSSQIAQDHQKKETVVKEDEGRRESINDRARRSPRKLPTSL
chain 2: GERKWAPPKFLPHKYDVKLQNEDKIISNVPADSLIRTERPPNKEIVRYFIRHNALRAGTGENAPWVVEDELVKKYSLPSKFSDFLLDPYKYMTLNPSTKRKNTGSPDRKPSKKSKTDNSSLSSPLNPKLWCHVHLKKS
B2: recombinant WSTF 1-345 construct (protein)
chain: MAPLLGRKPFPLVKPLPGEEPLFTIPHTQEAFRTREEYEARLERYSERIWTCKSTGSSQLTHKEAWEEEQEVAELLKEEFPAWYEKLVLEMVHHNTASLEKLVDTAWLEIMTKYAVGEECDFEVGKEKMLKVKIVKIHPLEKVDEEATEKKSDGACDSPSSDKENSSQIAQDHQKKETVVKEDEGRRESINDRARRSPRKLPTSLKKGERKWAPPKFLPHKYDVKLQNEDKIISNVPADSLIRTERPPNKEIVRYFIRHNALRAGTGENAPWVVEDELVKKYSLPSKFSDFLLDPYKYMTLNPSTKRKNTGSPDRKPSKKSKTDNSSLSSPLNPKLWCHVHLKKS
B3: recombinant full length human WSTF (Flag-epitope-tagged at C terminus) (protein)
chain: MAPLLGRKPFPLVKPLPGEEPLFTIPHTQEAFRTREEYEARLERYSERIWTCKSTGSSQLTHKEAWEEEQEVAELLKEEFPAWYEKLVLEMVHHNTASLEKLVDTAWLEIMTKYAVGEECDFEVGKEKMLKVKIVKIHPLEKVDEEATEKKSDGACDSPSSDKENSSQIAQDHQKKETVVKEDEGRRESINDRARRSPRKLPTSLKKGERKWAPPKFLPHKYDVKLQNEDKIISNVPADSLIRTERPPNKEIVRYFIRHNALRAGTGENAPWVVEDELVKKYSLPSKFSDFLLDPYKYMTLNPSTKRKNTGSPDRKPSKKSKTDNSSLSSPLNPKLWCHVHLKKSLSGSPLKVKNSKNSKSPEEHLEEMMKMMSPNKLHTNFHIPKKGPPAKKPGKHSDKPLKAKGRSKGILNGQKSTGNSKSPKKGLKTPKTKMKQMTLLDMAKGTQKMTRAPRNSGGTPRTSSKPHKHLPPAALHLIAYYKENKDREDKRSALSCVISKTARLLSSEDRARLPEELRSLVQKRYELLEHKKRWASMSEEQRKEYLKKKREELKKKLKEKAKERREKEMLERLEKQKRYEDQELTGKNLPAFRLVDTPEGLPNTLFGDVAMVVEFLSCYSGLLLPDAQYPITAVSLMEALSADKGGFLYLNRVLVILLQTLLQDEIAEDYGELGMKLSEIPLTLHSVSELVRLCLRRSDVQEESEGSDTDDNKDSAAFEDNEVQDEFLEKLETSEFFELTSEEKLQILTALCHRILMTYSVQDHMETRQQMSAELWKERLAVLKEENDKKRAEKQKRKEMEAKNKENGKVENGLGKTDRKKEIVKFEPQVDTEAEDMISAVKSRRLLAIQAKKEREIQEREMKVKLERQAEEERIRKHKAAAEKAFQEGIAKAKLVMRRTPIGTDRNHNRYWLFSDEVPGLFIEKGWVHDSIDYRFNHHCKDHTVSGDEDYCPRSKKANLGKNASMNTQHGTATEVAVETTTPKQGQNLWFLCDSQKELDELLNCLHPQGIRESQLKERLEKRYQDIIHSIHLARKPNLGLKSCDGNQELLNFLRSDLIEVATRLQKGGLGYVEETSEFEARVISLEKLKDFGECVIALQASVIKKFLQGFMAPKQKRRKLQSEDSAKTEEVDEEKKMVEEAKVASALEKWKTAIREAQTFSRMHVLLGMLDACIKWDMSAENARCKVCRKKGEDDKLILCDECNKAFHLFCLRPALYEVPDGEWQCPACQPATARRNSRGRNYTEESASEDSEDDESDEEEEEEEEEEEEEDYEVAGLRLRPRKTIRGKHSVIPPAARSGRRPGKKPHSTRRSQPKAPPVDDAEVDELVLQTKRSSRRQSLELQKCEEILHKIVKYRFSWPFREPVTRDEAEDYYDVITHPMDFQTVQNKCSCGSYRSVQEFLTDMKQVFTNAEVYNCRGSHVLSCMVKTEQCLVALLHKHLPGHPYVRRKRKKFPDRLAEDEGDSEPEAVGQSRGRRQKK
B4: recombinant WSTF 1-340 construct (protein)
chain: MAPLLGRKPFPLVKPLPGEEPLFTIPHTQEAFRTREEYEARLERYSERIWTCKSTGSSQLTHKEAWEEEQEVAELLKEEFPAWYEKLVLEMVHHNTASLEKLVDTAWLEIMTKYAVGEECDFEVGKEKMLKVKIVKIHPLEKVDEEATEKKSDGACDSPSSDKENSSQIAQDHQKKETVVKEDEGRRESINDRARRSPRKLPTSLKKGERKWAPPKFLPHKYDVKLQNEDKIISNVPADSLIRTERPPNKEIVRYFIRHNALRAGTGENAPWVVEDELVKKYSLPSKFSDFLLDPYKYMTLNPSTKRKNTGSPDRKPSKKSKTDNSSLSSPLNPKLWCHV
B5: recombinant WSTF 1-359 C338A point mutant (protein)
chain: MAPLLGRKPFPLVKPLPGEEPLFTIPHTQEAFRTREEYEARLERYSERIWTCKSTGSSQLTHKEAWEEEQEVAELLKEEFPAWYEKLVLEMVHHNTASLEKLVDTAWLEIMTKYAVGEECDFEVGKEKMLKVKIVKIHPLEKVDEEATEKKSDGACDSPSSDKENSSQIAQDHQKKETVVKEDEGRRESINDRARRSPRKLPTSLKKGERKWAPPKFLPHKYDVKLQNEDKIISNVPADSLIRTERPPNKEIVRYFIRHNALRAGTGENAPWVVEDELVKKYSLPSKFSDFLLDPYKYMTLNPSTKRKNTGSPDRKPSKKSKTDNSSLSSPLNPKLWAHVHLKKSLSGSPLKVKNSKNS

Legend:
[1] = target: recombinant H2A.X (WT), N-terminal 6xHis tag
[2] = target: recombinant H2A.X Y142F, N-terminal 6xHis tag

| Protein | kinase activity (in vitro kinase assay) [1] | other results |
| --- | --- | --- |
| B1 | The co-expressed N-motif and C-motif had significant kinase activity towards H2A.X |  |
| B2 | the 1-345 amino acid construct of WSTF had much more potent kinase activity (>50 fold) than the 1-340 construct | in vitro kinase assay [2]: its activity towards a Y142F mutant was much reduced |
| B3 |  | in vitro kinase assay [1]: Full length recombinant WSTF proteins isolated from insect cells phosphorylated free H2A.X protein in the presence of Mn^2+; in vitro kinase assay (32P autoradiography) [1]: The recombinant full length WSTF protein phosphorylated H2A.X-containing nucleosomes; in vitro kinase assay (32P autoradiography) [2]: WSTF phosphorylated the WT but not Y142F H2A.X |
| B4 | the activity of the 1-340 amino acid construct was much reduced (<50 fold) in comparison to the other constructs |  |
| B5 | the activity of a point mutant at C338 (C338A) was greatly diminished (<50 fold, FIG. 3F) |  |
